Molecular target: T1, AbApeO-AbApeC heterodimer (ketosynthase-chain length factor complex of the aryl polyene biosynthesis gene … (Acinetobacter baumannii))
T1 chain 1: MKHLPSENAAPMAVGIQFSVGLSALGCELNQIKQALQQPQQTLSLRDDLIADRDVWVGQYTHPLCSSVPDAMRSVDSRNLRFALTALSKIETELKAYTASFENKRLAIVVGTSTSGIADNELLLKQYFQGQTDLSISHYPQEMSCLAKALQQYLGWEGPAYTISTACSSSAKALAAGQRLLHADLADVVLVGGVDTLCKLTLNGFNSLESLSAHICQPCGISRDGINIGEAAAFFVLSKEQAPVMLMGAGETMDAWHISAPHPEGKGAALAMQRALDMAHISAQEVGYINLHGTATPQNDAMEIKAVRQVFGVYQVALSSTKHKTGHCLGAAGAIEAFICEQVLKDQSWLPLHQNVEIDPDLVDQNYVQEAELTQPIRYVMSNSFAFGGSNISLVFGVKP
T1 chain 2: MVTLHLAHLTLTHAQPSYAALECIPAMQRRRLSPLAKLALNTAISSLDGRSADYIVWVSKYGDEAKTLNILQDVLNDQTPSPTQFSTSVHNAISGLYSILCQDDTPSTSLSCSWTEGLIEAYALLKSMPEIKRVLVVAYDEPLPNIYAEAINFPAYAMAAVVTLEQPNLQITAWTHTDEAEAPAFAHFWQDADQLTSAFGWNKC
Assay: ITC

B1: holo ACP2 (ApeF), acyl carrier protein 2 of the A. baumannii APE gene cluster (natural protein)
chain: MSNLADELKQMIIDVLALEDITIADIDTEAPLFGEGLGLDSIDALELGLALKKRYNIHLNAESDETKQHFKSIQSLVALVEAQQKS
modifications: 4'-phosphopantetheine (holo form)
Kd: 42.7 µM

Reference: article PMC8358021 (2021)
